Legend:
[1] = test system: U87MG gliobastoma tumors; experiment: in vivo; set-up: species or system mice; conditions: mouse
[2] = in vivo; set-up: species or system mice; conditions: female, athymic nu/nu nude, mouse, total radioactivity

With `N=C(N)NCCC[C@@H]1NC(=O)[C@H](CCCCNC(=S)Nc2ccc(CCCCCC(CN3CCN(CC(=O)O)CCN(CC(=O)O)CC3)N(CC(=O)O)CC(=O)O)cc2)NC(=O)[C@@H](Cc2ccc(O)cc2)NC(=O)[C@H](CC(=O)O)NC(=O)CNC1=O` (stereo partly shown) [^177Lu-5p-C-NETA-c(RGDyK), metal not drawn] the “Radioactivity in the blood” value [1] was “completely cleared”, the tissue uptake at 4 h ([2]; 100 ug, Tumor uptake, blocked) was 0.6 ± 0.14 %ID/g and the tissue uptake at 1 h ([2]; Liver uptake) was 1.59 ± 0.22 %ID/g. It also gave a tissue uptake at 24 h ([2]; Liver uptake) of 0.32 ± 0.06 %ID/g, a tissue uptake at 1 h ([2]; Radioactivity in the blood) of 0.46 ± 0.06 %ID/g and a tissue uptake at 4 h ([2]; Tumor uptake) of 1.15 ± 0.27 %ID/g. For the same compound, the tissue uptake at 24 h ([2]; Tumor uptake) was 10.7 ± 0.38 %ID/g.

— publication PMC4670554 (Nuclear medicine and biology, 2014)
